In the supplement of paper PMC9170038:

Experiments:
MS2 coat protein [1] = experiment: apparent KD of MS2 coat protein, switch OFF state (with FMN for OFF switches, without FMN for ON switches); designed switch direction (-1 OFF switch, 1 ON switch): -1; higher = weaker reporter binding; conditions: FMN input: 0 or 200 uM; Eterna round: R93 (includes R88 designs)
Summary of the method: (§1)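 Apparent KD per design is the median of normalised cluster binding-curve fits. Designed RNA switches transcribed on-chip from Illumina sequencing clusters were titrated with SNAP-549-labelled MS2 coat protein in twofold steps from 0.7 or 1.5 nM to 3 µM, with 0.8–1.5 h down to 10–20 min per step. Buffer: 100 mM Tris-HCl pH 7.5, 80 mM KCl, 4 mM MgCl2, without or with constant ligand.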

MS2 coat protein [2] = experiment: apparent KD of MS2 coat protein, switch ON state; designed switch direction (-1 OFF switch, 1 ON switch): -1; higher = weaker reporter binding; conditions: FMN input: 0 or 200 uM; Eterna round: R93 (includes R88 designs)
Summary of the method: as §1

MS2 coat protein [3] = experiment: apparent KD of MS2 coat protein; designed switch direction (-1 OFF switch, 1 ON switch): 1; higher = weaker reporter binding
Summary of the method: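 For each design, the apparent KD is the median over clusters of curves fitted to normalised cluster fluorescence. Clusters held RNA switches with common flanks, transcribed on Illumina chips by stalled E. coli RNA polymerase. These were titrated with SNAP-549-labelled MS2 coat protein, doubling from 0.7 or 1.5 nM to 3 µM, without input, with 200 uM small-molecule ligand, or with an oligonucleotide input.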

[4] = input ligand: microRNA oligo, concentration not stated
[5] = Eterna round: R95, input ligand: microRNA oligo, concentration not stated
[6] = Eterna round: R95, input ligand: FMN 200 uM
[7] = Eterna round: R95, input ligand: none

Sequence	apparent KD of MS2 coat protein (MS2 coat protein [1]) [nM]	apparent KD of MS2 coat protein (MS2 coat protein [2]) [nM]	apparent KD of MS2 coat protein (MS2 coat protein [3]; input ligand: FMN 200 uM) [nM]	apparent KD of MS2 coat protein (MS2 coat protein [3]; [4]) [nM]	apparent KD of MS2 coat protein (MS2 coat protein [3]; input ligand: none) [nM]	other results
AAAAAGUGAGGAUAUGGUAAAAAAAAAAAAAAAAAAAAACUCCAGAAGGCACAUGAGGAUCACCCAUGUAAAAA [Jolly's Folly - Jieux - Exclusion 4]	5290	58.5				
AGUCAGAGAGGAUAUACAAGGGAAAAAAAAGUUAGAUCCCUACAUGAGGAUCACCCAUGUAGAAGGCUCUGACA [Ex2 Design 152: Sub-opt 16]	49.2	108				
AACAGUACAGGAUAUACAUGAGGAUCACCCAUGUGAAAAGAAAGUGGCGUACCACAAAGUAGAAGGGUACUGAA [Mat - Exclusion 3 - JL mod - D29]	135	25.3				
GGGCCACAUGAGGAUCACCCAUGUAAGGAUAUGCUAGGGAGGGAAAAAAUUUCGCCAGGCAGAAGGUACUAAAG [Janelle Amethyst 18 Mod 7 - Jieux - Exclusion 1]	31.4	23.6				
AAAAACCUAGGAUAUACAUGAGGAUCACCCAUGUAAAGAAAAAAAAAGGGAAAAAAAAGUAGAAGGAGGAAGAA [JR_Exc003_Sub1201]	18.6	16.6				
AAAAUACAUGAGGAUCACCCAUGUGAGGAUAUCGUAAAGAAAGUGAUCAAAAGAAAUACGAGAAGGCACAUAAA [PK3]	212	123				
AAAAAACAUGAGGAUCACCCAUGUAAGGAUAUGCUAGGAAAAAGAAAAAUAAAAACUAGCAGAAGGUAUAUGAA [JL wbt mod 12]	27.4	24.5				
AUCUACCUAGGAUAUACAUGAGGAUCACCCAUGUACAGUUUCAACUAGGGAUACUCACGUAGAAGGAGGUAGAU [JR_Exc003_Sub1210]	21.2	34.8				
AAUGCGGCAGGAUAUACAUGAGGAUCACCCAUGUAGAUCAGAUAUAUGGGAAAGCCAUGUAGAAGGGCCGCAAA [Ex 3May 61]	24.8	94.6				
GCCGCGUUUCGCGCCUACAUGAGGAUCACCCAUGUUUGUAGGCAGGAUAUCGUUUGCUUUGCAAACGAGAAGGGCUGUUGUGGC [salish99_SSNG3_R04_012] (Eterna round: R96, puzzle: Same State NG 3)			29.9	47.2	50.2	
CAGCACUAUCGAGAGGAUAUGCGGUGAUGGACAUGAGGAUCACCCAUGUUAGCGAUGGCAUCACGGCAGAAGGCUCUGCUGCUGC [Soteed Omei mod 38] (puzzle: Same State 2)						apparent KD of MS2 coat protein (MS2 coat protein [3]; [5]): 13.2 nM
UCUUGGUUUUUGCUCGUUUUUUGUGUUGAACAUGAGGAUCACCCAUGUAUUAUACGGUCCGGUUUAGUAGUGGUCCA [JMF 78] (puzzle: Sensor for hsa-mir-208a)						apparent KD of MS2 coat protein (MS2 coat protein [3]; [6]): 86.1 nM; apparent KD of MS2 coat protein (MS2 coat protein [3]; [5]): 83 nM; apparent KD of MS2 coat protein (MS2 coat protein [3]; [7]): 113 nM
UGAACCGUCACAGGAUAUCAUGCGAAAAUUGCGUGAGAAGGGUGGAUGUUGUGUUCAAAGAUGUACAUGAGGAUCACCCAUGUU [SameState NG1 #47] (Eterna round: R96, puzzle: Same State NG 1)			61	85.7	170	
ACAUGAGACGGAGGAUAUGUUGUACCUACAUGUGACAUGAGGAUCACCCAUGUGGUAAGUAUGAUACAGAAGGCCGAGAUAUGU [Equivalance 58 - Jieux - Same State NG 2] (Eterna round: R96, puzzle: Same State NG 2)			13.6	13.2	18.9	
GUAAAACAUGAGGAUCACCCAUGUAAUAAUAUGGGAGGAUAUCAGAAUGUAUGUAUGUAAUGAGAAGGCCUAAAUG [Mat - Same State 1 - Mod of Eli - D74] (puzzle: Same State 1)						apparent KD of MS2 coat protein (MS2 coat protein [3]; [6]): 101 nM; apparent KD of MS2 coat protein (MS2 coat protein [3]; [5]): 1610 nM; apparent KD of MS2 coat protein (MS2 coat protein [3]; [7]): 1120 nM
AGUCCAGCCUAAGCUGGACAAAAGCAUGUACAUGAGGAUCACCCAUGUUCAUGUACAAGCUUUUUGCUCGUCUUAAG [Mat - hsa-mir-208a - Mod of JL - 65] (puzzle: Sensor for hsa-mir-208a)						apparent KD of MS2 coat protein (MS2 coat protein [3]; [6]): 864 nM; apparent KD of MS2 coat protein (MS2 coat protein [3]; [5]): 18.7 nM; apparent KD of MS2 coat protein (MS2 coat protein [3]; [7]): 844 nM
GUUCGGAAUCGAGCUGACAUGAGGAUCACCCAUGUUAGUGGGAAGGAUAUGGUACAGAAACUGUACCAGAAGGUCUUACUGUCU (Eterna round: R96, puzzle: Same State NG 3)			47	66.7	67.4	
AUAAAACAUGAGGAUCACCCAUGUCAACUAAGUCGAGGAUAUGGGCAAAUAAAAUAAGAACCAGAAGGCGAAUAAU [salish99_ss1_r3_041] (puzzle: Same State 1)						apparent KD of MS2 coat protein (MS2 coat protein [3]; [6]): 34.3 nM; apparent KD of MS2 coat protein (MS2 coat protein [3]; [5]): 322 nM; apparent KD of MS2 coat protein (MS2 coat protein [3]; [7]): 361 nM
AAGGGAUGAGCGUAGGAUAUAGGAGAAGUGACAUGAGGAUCACCCAUGUAAAAGGAGGGAUGAGACUAGAAGGACGAGGUAGGAG [JR_SS2_Sub059] (Eterna round: R96, puzzle: Same State 2)			82.7	55.4	78.3	
GCCGUAAACAUGAGGAUCACCCAUGUAAACGCGAGAGUGGAUGAGGAUAUCGAUGGGUUUCCCGUCGAGAAGGCGUGGGUCGGC [JL SSNG3 3.99] (Eterna round: R96, puzzle: Same State NG 3)			36.2	31.8	46.1	
CUCCAUUGGGUAGGAUAUCUAGGAUAUGGGAAAGACUAAGUCUGUAGGUCACCUAACCCAGAUGGAGAGAAGGACCCAACUCUC [pwkr ssNG2 2FMN + F9.41] (Eterna round: R96, puzzle: Same State NG 2)			8.17	2.07	12.3	
GAGUGGAGGAGAGGAUAUACAAUGAUAAUCACAGUAGAAGGUUCUAACAUGAGGAUCACCCAUGUAGGACUAUACCUGAGAGAA [Parity 48 - Jieux - Same State NG 1] (Eterna round: R96, puzzle: Same State NG 1)			12.7	9.96	16	
GGAGCCGGCCUAGGAUAUUUCAUACAAAAACAUGAGGAUCACCCAUGUAGGCCAGAAGGCCUUGGGAAGAAGGAGGUCGGCUCC [Loop Effect - C25] (Eterna round: R96, puzzle: Same State NG 2)			14.5	16.9	34.2	
GUGGUCAGACAUGAGGAUCACCCAUGUGGAAUAAAUAACGGACAGGAUAUAAAAUAUAGGAUAUAUUAGAAGGGUUGAUUGGUG (Eterna round: R96, puzzle: Same State NG 3)			43.7	38.1	68.4	
GGAGCCGGUACUGAGGAUAUUCAUUUUAAAACAUGAGGAUCACCCAUGUAGGCCAGAAGGCCUUGGGAGAAGGCAGACCAGCUCG [Atgexeedri - 6] (puzzle: Same State 2)						apparent KD of MS2 coat protein (MS2 coat protein [3]; [6]): 20.9 nM; apparent KD of MS2 coat protein (MS2 coat protein [3]; [5]): 217 nM; apparent KD of MS2 coat protein (MS2 coat protein [3]; [7]): 369 nM
AUUAUUUUUGCAGGAUAUGAUUAACAUGAGGAUCACCCAUGUGGUGUUGUGAGUAAGGAGAGUGAUCAGAAGGGCAUUUUUUUU [JMF's solution 60] (Eterna round: R96, puzzle: Same State NG 2)			449	410	315	
